Results from patent US20110300139A1 (GENE TECHNO SCIENCE, published 2011).

Key:
human α9 integrin [1] = biological target: T1, human α9 integrin (human, UniProt Q13797 30-1035); test: cell-based or functional assay
T1 sequence: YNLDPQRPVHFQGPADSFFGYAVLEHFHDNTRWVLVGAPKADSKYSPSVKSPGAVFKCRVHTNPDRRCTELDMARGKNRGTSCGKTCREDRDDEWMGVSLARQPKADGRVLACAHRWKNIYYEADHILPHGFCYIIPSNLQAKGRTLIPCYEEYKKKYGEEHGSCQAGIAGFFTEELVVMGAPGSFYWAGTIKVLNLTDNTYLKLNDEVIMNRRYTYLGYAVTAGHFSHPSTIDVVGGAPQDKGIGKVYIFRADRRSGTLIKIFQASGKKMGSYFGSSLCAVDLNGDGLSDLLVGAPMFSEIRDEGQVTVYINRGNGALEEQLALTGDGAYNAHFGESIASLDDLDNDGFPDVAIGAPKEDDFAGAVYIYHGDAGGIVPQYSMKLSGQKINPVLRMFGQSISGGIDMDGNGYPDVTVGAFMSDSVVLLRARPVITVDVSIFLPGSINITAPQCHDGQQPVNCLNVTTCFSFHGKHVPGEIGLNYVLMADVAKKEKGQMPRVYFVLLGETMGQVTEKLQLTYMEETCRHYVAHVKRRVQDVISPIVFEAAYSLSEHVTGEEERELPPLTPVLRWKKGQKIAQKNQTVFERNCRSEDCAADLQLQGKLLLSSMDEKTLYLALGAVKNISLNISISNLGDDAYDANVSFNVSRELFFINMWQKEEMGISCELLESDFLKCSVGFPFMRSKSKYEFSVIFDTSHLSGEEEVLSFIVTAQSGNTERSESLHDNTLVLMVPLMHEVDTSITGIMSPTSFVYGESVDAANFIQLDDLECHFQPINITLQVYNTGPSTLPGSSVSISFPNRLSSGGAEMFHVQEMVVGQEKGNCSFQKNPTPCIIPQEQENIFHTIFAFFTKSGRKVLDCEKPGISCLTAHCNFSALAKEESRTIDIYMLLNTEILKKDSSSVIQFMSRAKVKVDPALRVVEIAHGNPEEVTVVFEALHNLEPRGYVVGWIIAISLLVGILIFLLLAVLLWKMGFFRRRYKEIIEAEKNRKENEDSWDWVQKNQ

human α9 integrin [2] = biological target: T1, human α9 integrin; test: FACS binding assay on CHO/huα9 cells
Method: (§1) Mouse K33N antibody was tested at various concentrations, starting at 1.67 μg/ml and serial 3-fold dilutions, for binding to CHO/huα9 cells. Geometric mean channel fluorescence values (MCF; Y-axis) are plotted at each antibody concentration tested (X-axis) in the figure. EC₅₀ values were calculated using GraphPad Prism (GraphPad Software, San Diego, Calif.).
as §1, with “Each” for “Mouse K33N”, “5” for “1.67”
Binding of mouse, chimeric and humanized K33N antibodies to human α9 integrin was examined in a FACS binding assay with CHO/huα9 cells. Approximately 5×10⁵ CHO/huα9 cells/test were washed with FACS Binding Buffer (PBS containing 0.5% BSA and 0.05% NaN₃) and suspended in 200 μl of FACS Binding Buffer containing various amounts of test antibody. After 30 min on ice, the cells were washed with FACS Binding Buffer. The cells stained with mouse K33N were then suspended in 100 μl of 1/200-diluted FITC-labeled goat anti-mouse IgG polyclonal antibody (SouthernBiotech) in FACS Binding Buffer. The cells stained with chimeric or humanized K33N were suspended in 100 μl of 1/200-diluted FITC-labeled goat anti-human IgG polyclonal antibody (SouthernBiotech) in FACS Binding Buffer. After 30 min on ice, the cells were washed with FACS Binding Buffer, suspended in 200 μl of FACS Binding Buffer, and analyzed using a FACScan flow cytometer (BD Biosciences, Franklin Lakes, N.J.). […] Between ChK33N and HuK33N antibodies, the binding pattern was very similar to each other (FIG. 22).

human α4 integrin = biological target: T2, human α4 integrin (human, UniProt P13612 34-1032); test: hybridoma screening on transfected cells
T2 construct: whole, on cells; Expressed on CHO K1 cells and used as the negative screen for hybridomas; also called CHO K1 cells expressing human α4 integrin
T2 sequence (looked up): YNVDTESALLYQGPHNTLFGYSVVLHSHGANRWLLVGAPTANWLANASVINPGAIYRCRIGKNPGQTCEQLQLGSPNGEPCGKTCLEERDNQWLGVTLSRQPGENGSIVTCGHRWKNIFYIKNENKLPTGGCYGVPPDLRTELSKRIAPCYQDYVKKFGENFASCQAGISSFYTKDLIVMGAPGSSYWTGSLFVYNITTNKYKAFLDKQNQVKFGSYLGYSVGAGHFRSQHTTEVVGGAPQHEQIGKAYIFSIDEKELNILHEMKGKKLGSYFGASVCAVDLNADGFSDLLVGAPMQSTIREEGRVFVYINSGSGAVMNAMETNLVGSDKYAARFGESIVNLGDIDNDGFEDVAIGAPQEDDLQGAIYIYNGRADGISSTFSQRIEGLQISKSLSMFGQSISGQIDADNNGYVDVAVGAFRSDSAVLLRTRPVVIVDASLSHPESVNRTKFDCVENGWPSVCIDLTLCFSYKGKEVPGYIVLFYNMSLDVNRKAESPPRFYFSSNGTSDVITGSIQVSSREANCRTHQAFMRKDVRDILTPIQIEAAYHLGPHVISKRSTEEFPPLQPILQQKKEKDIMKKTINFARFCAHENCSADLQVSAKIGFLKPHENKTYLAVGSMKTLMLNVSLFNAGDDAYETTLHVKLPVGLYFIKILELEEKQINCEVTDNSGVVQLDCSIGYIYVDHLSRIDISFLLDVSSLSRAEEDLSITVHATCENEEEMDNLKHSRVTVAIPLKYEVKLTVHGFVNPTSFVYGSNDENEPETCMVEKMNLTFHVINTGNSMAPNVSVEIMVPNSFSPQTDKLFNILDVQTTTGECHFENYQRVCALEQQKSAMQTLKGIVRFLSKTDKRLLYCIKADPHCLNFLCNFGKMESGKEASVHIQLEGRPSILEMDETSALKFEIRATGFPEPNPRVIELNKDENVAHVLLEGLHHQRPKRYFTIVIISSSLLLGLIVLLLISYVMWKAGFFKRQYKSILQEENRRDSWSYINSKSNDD
Method: Mouse monoclonal antibodies against human α9 integrin were prepared according to the subtractive immunization method (by Williams C. V., et al., 1992, Biotechniques 12:842-847). Briefly, three Balb/c mice were injected intraperitoneally with NIH-3T3 cells expressing human α9 integrin (Human α9/NIH-3T3 cells) at 3×10⁶ per mouse. At one and two weeks after the injection, the mice were injected intraperitoneally with 3×10⁶ cells/mouse of Human α9/NIH-3T3 cells, followed by another intravenous injection of the same cells at 2×10⁶ cell/mouse one week later. Hybridomas were prepared by the methods well known in the art (see, for example, Harlow et al., Antibodies: A Laboratory Manual, (Cold Spring Harbor Laboratory Press, 2nd ed. 1988); Hammerling, et al., in: Monoclonal Antibodies and T-Cell Hybridomas, pp. 563-681 (Elsevier, N.Y., 1981). Hybridoma clones producing monoclonal antibodies that were immunospecifically reactive with Human α9/CHO-K1 cells expressing human α9 integrin and with human melanoma cells endogenously expressing human α9 integrin but not with CHO K1 cells expressing human α4 integrin were established and a hybridoma clone (i.e., K33N) producing monoclonal antibody immunospecifically recognizing human α9 integrin were isolated.

| Molecule | IC50 of cell adhesion inhibition (G-361 cells to hTNC (AEIDGIEL)-BSA) (human α9 integrin [1]) | EC50 (human α9 integrin [2]) | binding result (human α4 integrin) |
| --- | --- | --- | --- |
| mouse anti human α9 integrin antibody Y9A2 | 0.053 µg/mL |  |  |
| mouse K33N monoclonal antibody (hybridoma FERM BP-10830) (antibody, mouse IgG1, V domains shown, also called mouse K33N antibody) VH: QVQLQQSGPELVKPGASVKISCKASGYSFTSYYMNWVKKRPGQGLEWIGWIFPGSGNTKYNEKFKGKATLTADTSSSTAYMQVSSLTSEDSAVYFCARSWVSYERGYYFDYWGQGTSLTVSS VL: DIQMTQSPASLAASVGETVTLTCRASENIYYSLAWYQQKQGKSPQLLIYNANSLEDGVPSRFSGSGSGTQYSMKINSMQPEDTATYFCKQAYDVPYTFGGGTKLEIK | 0.075 µg/mL | 0.104 µg/mL | no binding |
| chimeric K33N IgG1/κ antibody (antibody, V domains shown, Mouse K33N variable regions on human gamma-1 and kappa constant regions (vector pChK33N); also called ChK33N) VH: QVQLQQSGPELVKPGASVKISCKASGYSFTSYYMNWVKKRPGQGLEWIGWIFPGSGNTKYNEKFKGKATLTADTSSSTAYMQVSSLTSEDSAVYFCARSWVSYERGYYFDYWGQGTSLTVSS VL: DIQMTQSPASLAASVGETVTLTCRASENIYYSLAWYQQKQGKSPQLLIYNANSLEDGVPSRFSGSGSGTQYSMKINSMQPEDTATYFCKQAYDVPYTFGGGTKLEIK | 0.09 µg/mL | 0.143 µg/mL |  |
| humanized K33N IgG1/κ antibody (antibody, V domains shown, also called HuK33N) VH: QVQLVQSGAEVKKPGASVKVSCKASGYSFTSYYMNWVRQAPGQRLEWIGWIFPGSGNTKYNEKFKGKATLTADTSASTAYMELSSLRSEDTAVYYCARSWVSYERGYYFDYWGQGTLVTVSS VL: DIQMTQSPSSLSASVGDRVTITCRASENIYYSLAWYQQKPGKAPKLLIYNANSLEDGVPSRFSGSGSGTQYTLTISSLQPEDFATYYCKQAYDVPYTFGQGTKVEIKR | 0.084 µg/mL | 0.151 µg/mL |  |
